Measurements from paper PMC3170926 (Bioconjugate chemistry, 2011).
Read-outs that look alike come from different tables or passages of the source.

Columns and labels:
[1] = parameters: species or system SCID mice; conditions: mouse, in vivo
[2] = parameters: species or system SCID mice; conditions: mouse, in vivo; remark: listed apart in the source
[3] = tested on: integrin αvβ3 positive PC-3 tumor xenografts; parameters: species or system SCID mice; conditions: mouse, in vivo
[4] = parameters: species or system SCID mice; conditions: mouse, in vivo, tumor uptake
[5] = tested on: integrin αvβ3 positive PC-3 tumor xenografts; parameters: species or system SCID mice; conditions: mouse, in vivo; remark: listed apart in the source
[6] = parameters: species or system SCID mice; conditions: mouse, in vivo; remark: listed apart in the source
[7] = cited from earlier work; for thermodynamic stability constant log K: Ga(III) complex
integrin αvβ3 = integrin αvβ3 (human (endogenous in U87MG), UniProt P06756 31-1048; P05106 27-788); experiment: radioligand binding
integrin αvβ3, sequence (P06756 31-1048, chain 1 of 2): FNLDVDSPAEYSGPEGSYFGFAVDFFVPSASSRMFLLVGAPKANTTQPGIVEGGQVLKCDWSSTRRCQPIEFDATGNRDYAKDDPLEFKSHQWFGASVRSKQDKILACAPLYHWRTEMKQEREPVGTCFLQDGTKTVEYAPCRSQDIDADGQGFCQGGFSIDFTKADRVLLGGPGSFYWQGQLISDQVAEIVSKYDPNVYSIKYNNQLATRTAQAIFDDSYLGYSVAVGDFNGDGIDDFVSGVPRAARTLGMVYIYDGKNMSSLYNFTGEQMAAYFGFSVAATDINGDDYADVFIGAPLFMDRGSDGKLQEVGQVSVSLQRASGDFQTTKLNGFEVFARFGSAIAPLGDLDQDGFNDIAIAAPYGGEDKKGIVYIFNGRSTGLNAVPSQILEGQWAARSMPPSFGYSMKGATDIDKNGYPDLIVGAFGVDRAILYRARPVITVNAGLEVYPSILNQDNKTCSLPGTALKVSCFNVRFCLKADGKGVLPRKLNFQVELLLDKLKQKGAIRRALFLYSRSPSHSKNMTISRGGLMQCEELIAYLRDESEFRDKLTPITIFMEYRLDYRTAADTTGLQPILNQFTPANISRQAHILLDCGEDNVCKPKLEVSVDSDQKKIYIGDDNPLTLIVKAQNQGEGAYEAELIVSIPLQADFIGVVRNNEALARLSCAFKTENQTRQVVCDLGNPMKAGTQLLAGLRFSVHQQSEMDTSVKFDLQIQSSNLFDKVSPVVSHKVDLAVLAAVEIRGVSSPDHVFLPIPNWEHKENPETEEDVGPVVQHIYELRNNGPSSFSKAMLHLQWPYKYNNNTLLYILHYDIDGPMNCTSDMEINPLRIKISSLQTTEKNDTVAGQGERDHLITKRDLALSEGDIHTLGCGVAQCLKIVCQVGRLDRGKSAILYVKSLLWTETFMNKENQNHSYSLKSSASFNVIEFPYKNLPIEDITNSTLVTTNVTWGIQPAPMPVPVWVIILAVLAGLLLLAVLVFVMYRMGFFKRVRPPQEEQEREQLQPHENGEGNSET
integrin αvβ3, sequence (P05106 27-788, chain 2 of 2): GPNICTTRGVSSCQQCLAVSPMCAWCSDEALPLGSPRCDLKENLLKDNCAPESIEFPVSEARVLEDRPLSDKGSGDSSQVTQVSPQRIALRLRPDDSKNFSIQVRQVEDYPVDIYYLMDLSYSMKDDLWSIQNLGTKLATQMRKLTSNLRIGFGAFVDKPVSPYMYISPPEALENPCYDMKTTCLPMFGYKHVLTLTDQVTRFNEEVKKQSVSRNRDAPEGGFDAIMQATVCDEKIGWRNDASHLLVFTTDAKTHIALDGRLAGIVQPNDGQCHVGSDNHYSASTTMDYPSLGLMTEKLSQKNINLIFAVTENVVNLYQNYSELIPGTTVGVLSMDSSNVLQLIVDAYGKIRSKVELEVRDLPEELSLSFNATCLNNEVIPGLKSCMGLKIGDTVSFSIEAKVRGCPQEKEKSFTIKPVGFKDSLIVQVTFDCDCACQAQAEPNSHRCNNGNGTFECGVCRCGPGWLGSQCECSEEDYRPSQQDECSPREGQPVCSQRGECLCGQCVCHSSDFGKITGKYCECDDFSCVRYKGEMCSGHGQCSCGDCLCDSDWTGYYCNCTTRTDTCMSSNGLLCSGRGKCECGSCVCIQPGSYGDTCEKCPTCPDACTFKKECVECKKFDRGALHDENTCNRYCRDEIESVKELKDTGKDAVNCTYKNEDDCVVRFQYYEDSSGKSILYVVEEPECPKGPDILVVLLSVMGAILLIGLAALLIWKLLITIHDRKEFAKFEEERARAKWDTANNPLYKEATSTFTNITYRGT

N=C(N)NCCC[C@@H]1NC(=O)[C@H](CCCCNC(=S)Nc2ccc(C[C@H]3CN(CC(=O)O)CCN(CC(=O)O)CCN3CC(=O)O)cc2)NC(=O)[C@@H](Cc2ccc(O)cc2)NC(=O)[C@H](CC(=O)O)NC(=O)CNC1=O [^68Ga-1a, metal not drawn]
half-life ([1]; t1/2(α), distribution half-life): 4 ± 1.1 min | half-life ([1]; t1/2(β), terminal half-life): 29.8 ± 7.1 min | tissue uptake at 0.5 h ([2]; kidney uptake): 6.25 ± 0.61 %ID/g | tissue uptake at 2 h ([2]; kidney uptake): 2.95 ± 0.76 %ID/g | tissue uptake at 0.5 h ([2]; liver uptake): 1.98 ± 0.29 %ID/g | tissue uptake at 2 h ([2]; tumor uptake): 1.63 ± 0.19 %ID/g | kidney uptake retained at 2 h p.i. [3]: less than 60% | tissue uptake at 2 h [4]: 1.4 ± 0.36 %ID/g | tumor uptake retention at 2 h p.i. [5]: 43% | metabolites in urine by radio-HPLC [6]: no metabolites were detected

O=C([O-])CN1CCN(CC(=O)[O-])CCN(C(CC(=O)O)C(=O)[O-])CC1.[Ga+3] (stereo not shown) [Ga-NODASA]
thermodynamic stability constant log K ([7]; ref 24): 30.9

O=C([O-])CN1CCN(CC(=O)[O-])CCN(CC(=O)[O-])CC1.[Ga+3] [Ga(III)-NOTA complex]
acid-catalyzed dissociation ([7]; 6N HNO3 for 6 days): stay inert against the acid-catalyzed dissociation | thermodynamic stability constant log K ([7]; ref 22, 24): 30.98 | thermodynamic stability constant log K ([7]; ref 24): 30.98

O=C([O-])CN1CCN(CC(=O)[O-])CCN(CC(=O)O)CCN(CC(=O)[O-])CC1.[Ga+3] [DOTA complex with Ga(III)]
thermodynamic stability constant log K ([7]; ref 39): 21.33

B1: c(RGDyK) peptide (peptide)
peptide: cyclo(RGDYK)
modifications: not fully specified (residue 4)
IC50 (integrin αvβ3): 204 nM
